Measurements as given in patent US6821728B1, “Screening system” (priority 1998, dated 2004).

What was measured:
mutated p53 R273H = target: T1, mutated p53 R273H (Homo sapiens, UniProt P04637, R273H); assay: transactivation experiments in yeast strain YDE4xp53 (LacZ expression, beta-galactosidase); assay type: cell-based; details: peptide expressed from the pESBA-ADH or pESBA-ACT vector in yeast
T1 construct: expressed in transfected cells; host or cells: Saccharomyces cerevisiae strain YDE4xp53 (derivative of JPY9)
Excerpt: The agonistic action of the inventive screening system has been shown for the tumor suppressor gene p53. The tumor suppressor gene p53 is mutated in more than 50% of all human cancers which results in the inability to properly bind to the p53 binding site sin target genes responsible to induce cell cycle arrest or apoptosis. The four most commonly found mutations occur in the DNA binding domain of p53 and lead to a single amino acid substitution. […] This opens the possibility to use the peptide libraries according to the present invention to screen for peptides which restore the mutated p53 to wild type activity or to use this system to screen for agonistic actions of peptides in general. […]
Yeast strain YDE4xp53 was transformed with the conventional lithium acetate method (Methods in Yeast Genetics, a Cold Spring Harbor Laboratory Course Manual, Cold Spring Harbor Laboratory Press, 1994) with wild type and mutated p53 expression vectors. Transactivation potential of the different p53 molecules was determined by measurement of the LacZ expression on X-gal plates and liquid beta-galactosidase assays as described (Escher and Schaffner, Gene Activation at a Distance and Telomeric Silencing . . . , Mol. Gen. Genet. (1997) 256; 456-461). […]

mutated p53 (p53 R273H) = mutated p53 (p53 R273H) (Homo sapiens, UniProt P04637, R273H); details: synthetic peptide fused to the Drosophila Antennapedia internalisation domain (17 amino acids); cited from earlier work
[1] = target: T2, interaction between GAL4 and GAL11P (Saccharomyces cerevisiae, UniProt P19659, N342I); assay: inhibition of GAL4(1-100)-GAL11P interaction and reporter gene (LacZ/URA3) activation in yeast; assay type: cell-based; details: expressed from a high-copy plasmid (2 μm) in yeast, vector pESBA-ADH1
T2 construct: expressed in transfected cells; host or cells: Saccharomyces cerevisiae, JPY9 derivative (gal4Δ11) with integrated pESBA-17mer-URA3
Excerpt: To test the antagonistic action of short protein fragments or peptides in yeast, it was checked whether high production of a peptide could inhibit a defined molecular interaction.
The yeast strain used in these experiments is a derivative of JPY9 (MATα, ura3-52, his3Δ200, leu2Δ1, trp1Δ63, lys2Δ385, gal4Δ11) (A. Barberis et al., Cell, Vol. 81, 359-368) in which the reporter construct pESBA-17mer-URA3 was integrated at the his3 locus. Integration through homologous recombination was piloted by linearisation of the reporter plasmid at the XhoI site prior to yeast transformation. Expression of the URA3 gene was exploited to select for stable integrants on ura-media. […] Upon selection for integration of the reporter construct, this plasmid was readily cured from yeast cells by negative selection for URA3 expression on media containing 5-FOA (ref. Guide to Yeast Genetics and Molecular Biology)
Activation of the divergent LacZ and URA3 reporter genes in the yeast strain described above was induced by co-expression of the DNA-binding domain of GAL4 (amino acid residues 1-100) and GAL11P. GAL4(1-100) was expressed from the plasmid pRJR217 (Y. Wu et al., Quantification of Putative Activator- Target Affinities . . . , EMBO J. 15, 3951-3963, 1996), while GALllP was expressed from pSO28 (A. Barberis et. al., Cell Vol. 81, 359-368). […]

T2 sequence (P19659 whole entry N342I, the tested form may be a part): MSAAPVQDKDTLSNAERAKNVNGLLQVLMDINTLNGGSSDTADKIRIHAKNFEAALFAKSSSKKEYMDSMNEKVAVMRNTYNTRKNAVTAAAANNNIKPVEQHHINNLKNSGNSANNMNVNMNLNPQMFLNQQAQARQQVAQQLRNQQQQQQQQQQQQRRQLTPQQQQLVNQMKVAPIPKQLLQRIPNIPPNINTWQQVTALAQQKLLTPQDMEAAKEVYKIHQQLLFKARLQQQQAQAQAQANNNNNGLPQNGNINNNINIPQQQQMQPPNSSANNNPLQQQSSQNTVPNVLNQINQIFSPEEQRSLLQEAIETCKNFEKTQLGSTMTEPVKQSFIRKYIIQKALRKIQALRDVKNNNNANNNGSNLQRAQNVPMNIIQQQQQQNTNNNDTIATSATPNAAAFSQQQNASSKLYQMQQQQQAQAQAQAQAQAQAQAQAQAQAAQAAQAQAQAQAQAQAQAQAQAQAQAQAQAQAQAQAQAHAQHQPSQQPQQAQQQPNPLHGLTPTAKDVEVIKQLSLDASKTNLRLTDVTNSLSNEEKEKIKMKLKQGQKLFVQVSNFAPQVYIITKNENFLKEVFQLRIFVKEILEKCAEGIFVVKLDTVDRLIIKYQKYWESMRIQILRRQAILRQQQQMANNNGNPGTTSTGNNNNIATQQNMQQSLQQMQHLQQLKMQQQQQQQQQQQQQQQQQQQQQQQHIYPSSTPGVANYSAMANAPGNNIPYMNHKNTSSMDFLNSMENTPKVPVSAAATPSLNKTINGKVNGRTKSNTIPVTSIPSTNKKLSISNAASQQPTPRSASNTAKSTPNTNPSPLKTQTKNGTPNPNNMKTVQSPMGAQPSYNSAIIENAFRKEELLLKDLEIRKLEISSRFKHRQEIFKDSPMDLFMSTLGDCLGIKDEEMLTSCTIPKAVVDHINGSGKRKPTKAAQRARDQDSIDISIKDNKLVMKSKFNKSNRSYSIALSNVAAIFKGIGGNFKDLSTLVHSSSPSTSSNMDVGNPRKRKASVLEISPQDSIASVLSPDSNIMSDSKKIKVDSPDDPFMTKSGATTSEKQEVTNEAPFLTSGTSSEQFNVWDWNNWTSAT

Substance | reactivation of mutated p53 R273H in transactivation experiments (mutated p53 R273H) | restoration of DNA binding activity of the mutated p53 (mutated p53 (p53 R273H)) | inhibition of GAL4-GAL11P protein-protein interaction and its effect on gene expression [1]
22mer peptide 46: 22 amino acid long peptide stemming from the carboxy-terminal part of p53 (361-382) (GSRAHSSHLKSKKGQSTSRHKK; UniProt P04637 361-382, looked up, fragment) | sufficient to partially reactivate mutated p53 R273H | can restore DNA binding activity of the mutated p53 | 
short protein fragment: peptide comprising the GAL4 residues 58-97, known to contain the GAL11P-interacting sequence, overexpressed from vector pESBA-ADH1 |  |  | could be specifically inhibited
